Laboratory results published in article PMC6795808, “N6-methyladenosine modification of circNSUN2 facilitates cytoplasmic export and stabilizes HMGA2 to promote colorectal liver metastasis”.

B1: circNSUN2-m6A wild type (ssRNA)
RNA: AUAAGGUAUCCUGAAGAACU
modifications: m6A not marked in the printed sequence; whether A18 is methylated in the probe is unclear

Key:
IGF2BP2 WT = IGF2BP2 WT (UniProt Q9Y6M1 1-599); test: EMSA; dose-dependent; confirmed by supershift; LightShift Chemiluminescent RNA EMSA kit binding buffer (composition not stated), 30 min, room temperature; 6% native PAGE, 0.5x TBE; supershift preincubation with antibody 20 min at 0 C; settings: protein: recombinant; tags: FLAG; label: 3'-biotin
Chain of IGF2BP2 WT (Q9Y6M1 whole entry): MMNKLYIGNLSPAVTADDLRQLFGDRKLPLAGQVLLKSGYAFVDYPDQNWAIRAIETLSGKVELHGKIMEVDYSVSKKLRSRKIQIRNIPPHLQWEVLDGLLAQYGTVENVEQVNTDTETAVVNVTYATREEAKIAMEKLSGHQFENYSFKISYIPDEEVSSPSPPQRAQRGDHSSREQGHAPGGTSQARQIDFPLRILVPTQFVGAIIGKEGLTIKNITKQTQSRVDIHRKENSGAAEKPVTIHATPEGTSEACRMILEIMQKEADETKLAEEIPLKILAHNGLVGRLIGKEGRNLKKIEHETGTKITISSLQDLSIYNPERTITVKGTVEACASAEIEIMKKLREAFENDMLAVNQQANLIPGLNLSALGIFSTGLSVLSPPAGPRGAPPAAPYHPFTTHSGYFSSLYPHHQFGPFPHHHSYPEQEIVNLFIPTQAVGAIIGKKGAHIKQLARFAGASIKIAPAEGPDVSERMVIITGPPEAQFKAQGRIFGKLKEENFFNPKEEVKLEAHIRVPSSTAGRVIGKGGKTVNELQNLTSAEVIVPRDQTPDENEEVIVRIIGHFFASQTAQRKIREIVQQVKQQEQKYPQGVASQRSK

YTHDC1 WT = YTHDC1 WT (UniProt Q96MU7 1-727); test: EMSA; LightShift Chemiluminescent RNA EMSA kit binding buffer (composition not stated), 30 min, room temperature; 6% native PAGE, 0.5x TBE; supershift preincubation with antibody 20 min at 0 C; settings: protein: recombinant; tags: FLAG; label: 3'-biotin

Binder	binding result (IGF2BP2 WT)	binding result (YTHDC1 WT)
CCUCAUCAUAAGGUAUCCUG (ssRNA) [circNSUN2 wild type (IGF2BP2 probe)]	binds	
B1		binds
